In patent US20050282739A1 one finds % Inhibition data, which are given here for 31 molecules.

The term % Inhibition denotes the drop in the measured response relative to a control, in per cent.

The labels stand for the following.
B1: metallopeptide 8-6 (peptide)
peptide: [dF]QWACVGHLL-NH2
modifications: not fully specified (bridges); printed as D-Phe-Gln-Trp-Ala-Cys-Val-Gly-His-Leu-Leu-NH2; also: oxorhenium(V) N3S1 tetradentate complex at Cys 5
B2: metallopeptide 8-2 (peptide)
peptide: [dF]QWAVGHLCL-NH2
modifications: bridge (positions not given here) via ReOCl3(PPh3)2; also: oxorhenium(V) N3S1 tetradentate complex at Cys 9
B3: metallopeptide 8-5 (peptide)
peptide: [dF]QWAVCGHLL-NH2
modifications: bridge (positions not given here) via ReOCl3(PPh3)2; also: oxorhenium(V) N3S1 tetradentate complex at Cys 6
B4: metallopeptide 8-3 (peptide)
peptide: [dF]QWAVGHCLL-NH2
modifications: bridge (positions not given here) via ReOCl3(PPh3)2; also: oxorhenium(V) N3S1 tetradentate complex at Cys 8
B5: metallopeptide 8-1 (peptide)
peptide: [dF]QWAVGHLLC-NH2
modifications: bridge (positions not given here) via ReOCl3(PPh3)2; also: oxorhenium(V) N3S1 tetradentate complex at Cys 10
B6: metallopeptide 8-4 (peptide)
peptide: [dF]QWAVGCHLL-NH2
modifications: bridge (positions not given here) via ReOCl3(PPh3)2; also: oxorhenium(V) N3S1 tetradentate complex at Cys 7
B7: bombesin analog parent polypeptide D-Phe-Gln-Trp-Ala-Val-Gly-His-Leu-Leu-NH2 (peptide)
peptide: [dF]QWAVGHLL-NH2
modifications: N-terminus assumed
SMILES: CC(C)C[C@H](NC(=O)[C@H](CC(C)C)NC(=O)[C@H](Cc1c[nH]cn1)NC(=O)CNC(=O)[C@@H](NC(=O)[C@H](C)NC(=O)[C@H](Cc1c[nH]c2ccccc12)NC(=O)[C@H](CCC(N)=O)NC(=O)[C@H](N)Cc1ccccc1)C(C)C)C(N)=O

Square brackets hold non-standard residues; d marks the D form. Ends that are not written are not given here. pGlu = O=C1CC[C@@H](C(=O)O)N1; Nle = CCCC[C@H](N)C(=O)O

For this assay, the target named is bombesin receptor of rat brain membranes (rat). As to the kind of experiment: 125I-Bombesin competition, rat brain membranes.
Turning to XQRLGNQWAVGHLC (Pyr 1; C-terminal amide; Re complexed at Cys 14) [metallopeptide 7-1], the % Inhibition worked out at 73%.
The value for B1 was 35%; that for XQRLGNQCAVGHLX (Pyr 1; Nle 14; C-terminal amide; Re complexed at Cys 8) [metallopeptide 7-7] was -2%.
Turning to [pGlu]QRLGNQWCAVGHL[Nle]-NH2 (also: Re(V)=O N3S1 chelate at Cys9 (from ReOCl3(PPh3)2)) [metallopeptide 6-7], the % Inhibition was found to be 62%.
Consider [pGlu]QRLGNQWAVCGHL[Nle]-NH2 (also: Re(V)=O N3S1 chelate at Cys11 (from ReOCl3(PPh3)2)) [metallopeptide 6-5], for which the % Inhibition came to 67%.
As to [pGlu]QRLGNCQWAVGHL[Nle]-NH2 (also: Re(V)=O N3S1 chelate at Cys7 (from ReOCl3(PPh3)2)) [metallopeptide 6-9], the % Inhibition came out at 91%.
For B2, the % Inhibition worked out at 75%.
The value for XQRLGNQWAVGHLM (not fully specified; pyroglutamic acid (Pyr) 1; C-terminal amide) [bombesin parent polypeptide Pyr-Gln-Arg-Leu-Gly-Asn-Gln-Trp-Ala-Val-Gly-His-Leu-Met-NH2] was 106%.
On to XQRLGNQWACGHLX (Pyr 1; Nle 14; C-terminal amide; Re complexed at Cys 10) [metallopeptide 7-5], for which the % Inhibition worked out at 61%.
For B3, the % Inhibition was determined as 70%.
Turning to [pGlu]QRLGNQWAVGCHL[Nle]-NH2 (also: Re(V)=O N3S1 chelate at Cys12 (from ReOCl3(PPh3)2)) [metallopeptide 6-4], the % Inhibition was 70%.
On to Ac-AQCRLGNQWAVGHL[Nle]-NH2 (also: Re(V)=O N3S1 chelate at Cys3 (from ReOCl3(PPh3)2)) [metallopeptide 6-13], for which the % Inhibition turned out to be 99%.
Take XQRLGNQWAVGHCX (Pyr 1; Nle 14; C-terminal amide; Re complexed at Cys 13) [metallopeptide 7-2]: the % Inhibition stood at 66%.
With [pGlu]QRLGNQWACVGHL[Nle]-NH2 (also: Re(V)=O N3S1 chelate at Cys10 (from ReOCl3(PPh3)2)) [metallopeptide 6-6], the % Inhibition came to 83%.
As to B4, the % Inhibition turned out to be 49%.
For the molecule XQRLGNQWAVCHLX (Pyr 1; Nle 14; C-terminal amide; Re complexed at Cys 11) [metallopeptide 7-4], the % Inhibition worked out at 81%.
For [pGlu]QRCLGNQWAVGHL[Nle]-NH2 (also: Re(V)=O N3S1 chelate at Cys4 (from ReOCl3(PPh3)2)) [metallopeptide 6-12], the % Inhibition is 97%.
As to B5, the % Inhibition is 39%.
In the case of [pGlu]QRLGCNQWAVGHL[Nle]-NH2 (also: oxorhenium(V) N3S1 chelate at Cys6) [metallopeptide 6-10] it was 93%.
As to XQRCGNQWAVGHLX (Pyr 1; Nle 14; C-terminal amide; Re complexed at Cys 4) [metallopeptide 7-11], the % Inhibition came to 95%.
Consider XQRLGNCWAVGHLX (Pyr 1; Nle 14; C-terminal amide; Re complexed at Cys 7) [metallopeptide 7-8], for which the % Inhibition turned out to be 84%.
Take Ac-AQCLGNQWAVGHL[Nle]-NH2 (also: Re(V)=O N3S1 chelate at Cys3 (from ReOCl3(PPh3)2)) [metallopeptide 7-12]: the % Inhibition is 96%.
Take XQRLGNQWAVGCLX (Pyr 1; Nle 14; C-terminal amide; Re complexed at Cys 12) [metallopeptide 7-3]: the % Inhibition is 82%.
For [pGlu]QRLGNQWAVGHL[Nle]C-NH2 (also: oxorhenium(V) N3S1 chelate at Cys15) [metallopeptide 6-1], the % Inhibition is 82%.
For the molecule B6, the % Inhibition turned out to be 59%.
With [pGlu]QRLGNQCWAVGHL[Nle]-NH2 (also: Re(V)=O N3S1 chelate at Cys8 (from ReOCl3(PPh3)2)) [metallopeptide 6-8], the % Inhibition came out at 75%.
For XQRLGNQWCVGHLX (Pyr 1; Nle 14; C-terminal amide; Re complexed at Cys 9) [metallopeptide 7-6], the % Inhibition came to 91%.
B7: the % Inhibition came to 92%.
With [pGlu]QRLGNQWAVGHCL[Nle]-NH2 (also: Re(V)=O N3S1 chelate at Cys13 (from ReOCl3(PPh3)2)) [metallopeptide 6-3], the % Inhibition was 71%.
Turning to XQRLGCQWAVGHLX (Pyr 1; Nle 14; C-terminal amide; Re complexed at Cys 6) [metallopeptide 7-9], the % Inhibition was 93%.
For XQRLGNQWAVGHLCX (Pyr 1; Nle 15; C-terminal amide; Re complexed at Cys 14) [metallopeptide 6-2], the % Inhibition amounted to 91%.
